Laboratory results reported in CN113842456A (QILU PHARMACEUTICAL CO LTD, dated 2021).

Legend:
[1] = target: 人4-1BB on HEK293/Human4-1BB细胞 (human, UniProt Q07011 24-255); assay: cell-based or functional assay
[2] = target: T1, 重组人4-1BB蛋白(ACRO，货号41B-H5227) (human, UniProt Q07011 24-186); assay: SPR (BIAcore), antibody captured on Protein A on a CM5 chip, 4-1BB 20nM-0.31nM as analyte
T1 construct: Bought recombinant protein; also called 4-1BB抗原; TNFRSF9

Sequence of 人4-1BB on HEK293/Human4-1BB细胞 (Q07011 24-255): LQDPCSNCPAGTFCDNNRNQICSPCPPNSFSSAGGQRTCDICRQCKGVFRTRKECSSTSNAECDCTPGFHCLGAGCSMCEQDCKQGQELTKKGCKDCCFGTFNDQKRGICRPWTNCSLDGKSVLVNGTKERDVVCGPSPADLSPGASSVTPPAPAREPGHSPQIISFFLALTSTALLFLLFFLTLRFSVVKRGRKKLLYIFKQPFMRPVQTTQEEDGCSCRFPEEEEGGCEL

NF-κB报告基因发光值(RLU) EC50 [1]: 7.69 ng/mL
Kd [2]: 0.918 nM
B1: 抗人4-1BB的单克隆抗体MC03 (antibody, human IgG2, kappa, V domains shown)
VH: EVQLVQSGAEVKKPGATVKISCKASGFNIKDYYIHWVNQAPGKGLEWIGRIDPEDGDIAYAPKFQDRVTLTVDTSTDTAYLELSSLRSEDTAVYYCTTGNYYAMDFWGQGTTVTVSS
VL: QIVLTQSPATLSASPGERVTLSCTASSSVSSSYLHWYQQKPGSSPKLWIYSTSNLASGVPARFSGSGPGTSYTLTISSMEPEDAATYYCHQYHRSPPTFGQGTKLEIKR
notes: Obtained according to PCT/US2020/012080; The isotype control used is human IgG2; also called huG28.21.G2.1.4
